From article PMC5931518, “Architecture of the U6 snRNP reveals specific recognition of 3′-end processed U6 snRNA”

Columns and labels:
[1] = molecular target: Prp24-8Asub (eight RRM4 residues at the Lsm2 interface substituted with alanine) (S. cerevisiae) (UniProt P49960); test: native gel or EMSA; different amounts of Lsm2–8 added to 0.5 nM Cy3-U6 1–112 pre-incubated 20 min with 20 nM Prp24; 100 mM KCl, bis-tris pH ~6.5, room temperature; 6% native polyacrylamide gel at 4 °C; Hill fit, average of three technical replicates
[2] = molecular target: T1, Prp24-8Asub (eight RRM4 residues at the Lsm2 interface substituted with alanine) (S. cerevisiae, UniProt P49960 1-444, D361A | S362A | K363A | K367A | L369A | M370A | I371A | N373A); test: EMSA; Prp24-8Asub pre-bound to U6 RNA (U6/Prp24 complex)
T1 sequence: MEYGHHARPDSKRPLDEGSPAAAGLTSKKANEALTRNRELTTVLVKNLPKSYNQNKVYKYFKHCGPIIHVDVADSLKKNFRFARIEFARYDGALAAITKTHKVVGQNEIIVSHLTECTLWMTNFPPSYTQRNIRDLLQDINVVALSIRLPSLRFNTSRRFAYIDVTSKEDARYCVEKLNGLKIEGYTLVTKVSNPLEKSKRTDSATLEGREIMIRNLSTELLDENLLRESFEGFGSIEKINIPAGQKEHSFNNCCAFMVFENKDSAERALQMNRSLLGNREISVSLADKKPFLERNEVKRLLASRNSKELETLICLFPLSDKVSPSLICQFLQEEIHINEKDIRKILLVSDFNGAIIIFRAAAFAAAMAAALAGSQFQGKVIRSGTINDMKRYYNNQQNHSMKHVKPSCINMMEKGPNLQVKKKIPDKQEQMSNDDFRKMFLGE

[3] = molecular target: Prp24-8Asub (eight RRM4 residues at the Lsm2 interface substituted with alanine) (S. cerevisiae) (UniProt P49960)
[4] = molecular target: T2, wild-type Prp24 for electrophoretic mobility shift assays (TEV-labile N-terminal polyhistidine tag removed) (S. cerevisiae, UniProt P49960 1-444); test: EMSA; Prp24 pre-bound to U6 RNA (U6/Prp24 complex)
T2 chain: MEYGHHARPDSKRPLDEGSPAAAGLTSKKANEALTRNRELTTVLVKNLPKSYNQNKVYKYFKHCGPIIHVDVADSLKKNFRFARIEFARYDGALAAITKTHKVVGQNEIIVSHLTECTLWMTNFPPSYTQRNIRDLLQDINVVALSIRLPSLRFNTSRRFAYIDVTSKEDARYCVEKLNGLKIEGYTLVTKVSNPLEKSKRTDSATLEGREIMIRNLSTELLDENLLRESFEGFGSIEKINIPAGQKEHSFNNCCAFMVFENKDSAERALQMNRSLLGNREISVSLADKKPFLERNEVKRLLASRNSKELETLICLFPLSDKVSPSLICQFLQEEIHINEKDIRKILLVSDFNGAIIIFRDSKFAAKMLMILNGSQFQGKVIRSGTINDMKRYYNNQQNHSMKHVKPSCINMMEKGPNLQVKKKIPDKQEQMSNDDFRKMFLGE

B1: Lsm2–8 heteroheptameric ring, "mostly wild type" construct (complex)
chain 1: MGSMLFFSFFKTLVDQEVVVELKNDIEIKGTLQSVDQFLNLKLDNISCTDEKKYPHLGSVRNIFIRGSTVRYVYLNKNMVDTNLLQDATRREVMTERK
chain 2: MGSMETPLDLLKLNLDERVYIKLRGARTLVGTLQAFDSHCNIVLSDAVETIYQLNNEELSESERRCEMVFIRGDTVTLISTPSEDDDGAVEI
chain 3: MGSMLPLYLLTNAKGQQMQIELKNGEIIQGILTNVDNWMNLTLSNVTEYSEESAINSEDNAESSKAVKLNEIYIRGTFIKFIKLQDNIIDKVKQQI
chain 4: MGSMSLPEILPLEVIDKTINQKVLIVLQSNREFEGTLVGFDDFVNVILEDAVEWLIDPEDESRNEKVMQHHGRMLLSGNNIAILVPGGKKTPTEAL
chain 5: GSMSGKASTEGSVTTEFLSDIIGKTVNVKLASGLLYSGRLESIDGFMNVALSSATEHYESNNNKLLNKFNSDVFLRGTQVMYISEQKI
chain 6: MGSMHQQHSKSENKPQQQRKKFEGPKREAILDLAKYKDSKIRVKLMGGKLVIGVLKGYDQLMNLVLDDTVEYMSNPDDENNTELISKNARKLGLTVIRGTILVSLSSAEGSDVLYMQK
chain 7: GSMSATLKDYLNKRVVIIKVDGECLIASLNGFDKNTNLFITNVFNRISKEFICKAQLLRGSEIALVGLIDAENDDSLAPIDEKKVPMLKDTKNKIENEHVIWEKVYESKTK
[1]
  fold reduction of affinity against wild-type Prp24 (U6•Prp24 complex): 2 fold
[2]
  Kd: 5.7 nM
[3]
  rate of in vitro annealing of U4 and U6 with Prp24-8Asub in place of wild-type Prp24 (50 nM Prp24/50 nM Lsm2–8): 2 fold slower
[4]
  Kd: 2.8 nM
